T1: mouse Tie2-Fc (Fc-conjugated extracellular domain of Tie2) (mouse, UniProt Q02858 23-746)
T1 chain: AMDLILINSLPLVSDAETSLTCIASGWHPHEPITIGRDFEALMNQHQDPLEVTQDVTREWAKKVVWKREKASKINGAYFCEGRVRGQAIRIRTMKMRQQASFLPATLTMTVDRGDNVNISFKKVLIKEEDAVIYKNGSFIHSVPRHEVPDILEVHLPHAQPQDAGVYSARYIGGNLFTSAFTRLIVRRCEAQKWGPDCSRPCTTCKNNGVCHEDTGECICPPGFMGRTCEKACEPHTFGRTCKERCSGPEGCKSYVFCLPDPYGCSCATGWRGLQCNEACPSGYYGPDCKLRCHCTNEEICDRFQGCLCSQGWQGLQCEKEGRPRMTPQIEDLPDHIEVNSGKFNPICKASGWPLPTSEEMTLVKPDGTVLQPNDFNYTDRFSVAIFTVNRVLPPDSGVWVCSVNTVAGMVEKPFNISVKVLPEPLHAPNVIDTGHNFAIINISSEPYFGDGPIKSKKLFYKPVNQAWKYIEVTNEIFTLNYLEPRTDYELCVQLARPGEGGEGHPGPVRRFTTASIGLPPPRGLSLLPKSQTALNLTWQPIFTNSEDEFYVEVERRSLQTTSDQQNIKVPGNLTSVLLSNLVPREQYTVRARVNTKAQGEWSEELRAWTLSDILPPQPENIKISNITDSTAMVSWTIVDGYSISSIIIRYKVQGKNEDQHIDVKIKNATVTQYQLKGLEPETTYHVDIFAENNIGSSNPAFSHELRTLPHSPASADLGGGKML

T2: human Tie2-Fc (Fc-conjugated extracellular domain of Tie2) (human, UniProt Q02763 23-748)
T2 chain: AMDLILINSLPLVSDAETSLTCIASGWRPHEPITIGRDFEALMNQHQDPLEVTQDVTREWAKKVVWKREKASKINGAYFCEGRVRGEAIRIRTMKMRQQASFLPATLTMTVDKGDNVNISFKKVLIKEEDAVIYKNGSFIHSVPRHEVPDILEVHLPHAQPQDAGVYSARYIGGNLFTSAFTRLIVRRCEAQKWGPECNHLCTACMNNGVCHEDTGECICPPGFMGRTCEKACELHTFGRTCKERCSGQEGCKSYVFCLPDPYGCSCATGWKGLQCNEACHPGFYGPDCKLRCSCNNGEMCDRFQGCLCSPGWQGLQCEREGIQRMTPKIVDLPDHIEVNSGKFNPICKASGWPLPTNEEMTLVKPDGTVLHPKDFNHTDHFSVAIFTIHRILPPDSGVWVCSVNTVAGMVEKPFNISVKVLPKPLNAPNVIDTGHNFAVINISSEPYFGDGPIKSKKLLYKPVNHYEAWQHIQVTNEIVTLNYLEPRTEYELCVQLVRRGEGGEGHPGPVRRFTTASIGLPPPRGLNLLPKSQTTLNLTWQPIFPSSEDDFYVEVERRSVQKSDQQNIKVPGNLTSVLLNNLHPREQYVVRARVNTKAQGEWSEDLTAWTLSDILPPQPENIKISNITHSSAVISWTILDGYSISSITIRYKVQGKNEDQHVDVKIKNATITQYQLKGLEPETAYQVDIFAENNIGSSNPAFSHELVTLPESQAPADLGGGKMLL


Key:
[1] = test system: Tie2 (Ang1 or Ang2 binding); details: synthetic free form, ref Tournaire et al, 2004, cited from earlier work; for inhibition of Ang1 or Ang2 binding to Tie2: competition assays, tested up to 1 mM
Excerpt: For therapeutic use, recombinant variants or mimetics of multimeric Ang1 have been engineered, including Ang1* and Ang-F1-Fc-F1/Bow-Ang1 (Davis et al, [2003]; Daly et al, [2013]), MAT-Ang1 and COMP-Ang1 (Cho et al, [2004]; Koh, [2013]). […] The main focus of the original paper that discovered T7 (Tournaire et al, [2004]) was actually on a different peptide called ‘T4’ (NLLMAAS) and its potential use as a Tie2 inhibitor/antagonist.

mouse Tie2-Fc (mTie2-Fc) = target: T3, mouse Tie2-Fc (mTie2-Fc) (Mus musculus, UniProt Q02858); test: SPR binding to mouse Tie2-Fc; details: mouse Tie2-Fc (low- and high-density), 37°C, pH 7.4, Supplementary Fig S3
T3 construct: Purified human or mouse Tie2-Fc (i.e., Fc-conjugated extracellular domains of Tie2); purchased R&D Systems 762-T2-100
Excerpt: To better understand the difficulties we had in observing Tie2 activation by VT, we sought to characterize the binding affinity and kinetics of VT to Tie2. Purified human or mouse Tie2-Fc (i.e., Fc-conjugated extracellular domains of Tie2) were first coupled to protein A sepharose beads for pull-down experiments (Fig9A and B) or immobilized on a Biacore CM5 sensor chip for surface plasmon resonance (SPR) experiments (Fig9C and Supplementary Fig S3). […]
(§1) 9. Tie2 Receptor-Binding Assays
(§2) Vasculotide (VT) was manufactured by Bachem UK Ltd. T7c (CHHHRHSF) was synthesized by Genscript (Piscataway, NJ, USA). PEG-Cys consists of a single cysteine reacted to each of the 4 arms of PEG-maleimide (Sunbright PTE-100MA, NOF Corporation, Tokyo, Japan). BowAng1 (Ang1-Fd-Fc-Fd) was made and provided by Regeneron Pharmaceuticals, Inc. (Tarrytown, NY, USA). COMP-Ang1 was purified in the Kerbel lab from serum-free culture media conditioned by an engineered CHO cell line provided by Dr. Gou Young Koh (KAIST), according to published protocols (Hwang et al, 2008).
(§3) Recombinant human Angiopoietin-1 (rhAng1) and Vascular Endothelial Growth Factor ( rhVEGF) were […]
(§4) purchased from R&D Systems. […]
(structural/molecular weight control for VT), and 40 μL of supernatant (7% of residual/unbound ligand) – were similarly boiled in SDS sample buffer. […]
Binding analysis were performed by exposure of immobilized mTie2-Fc to the analytes diluted in HBS-EP (0.01M HEPES pH 7.4, 0.15M NaCl, 3mM EDTA, 0.005% v/v Tween-20), which was supplemented with 1mg/mL carboxymethyl dextran (NSB reducer, GE Healthcare) to reduce non-specific binding to the sensor chip. […] To quantitatively determine the kinetic properties of the interaction (KD, kd, ka) and avoid mass transport limitations, mTie2-Fc and hTie2-Fc were immobilized at low density (1,000-1,200RU) onto separate flow cells of the CM5 chip using amine coupling chemistry. […] All data were analysed using BIA Evaluation Software 2.0 (GE Healthcare) to calculate kd, ka and KD using the 1:1 ligand binding model. […]

human Tie2-Fc (hTie2-Fc) = target: T4, human Tie2-Fc (hTie2-Fc) (Homo sapiens, UniProt Q02763); test: SPR binding to human Tie2-Fc; details: human Tie2-Fc, 0.625–10 nM, 37°C, pH 7.4, Fig9C
T4 construct: Purified human or mouse Tie2-Fc (i.e., Fc-conjugated extracellular domains of Tie2); purchased R&D Systems 313-TI-100
Excerpt: To better understand the difficulties we had in observing Tie2 activation by VT, we sought to characterize the binding affinity and kinetics of VT to Tie2. Purified human or mouse Tie2-Fc (i.e., Fc-conjugated extracellular domains of Tie2) were first coupled to protein A sepharose beads for pull-down experiments (Fig9A and B) or immobilized on a Biacore CM5 sensor chip for surface plasmon resonance (SPR) experiments (Fig9C and Supplementary Fig S3).
Figure 9 Binding of Vasculotide vs. Ang1 variants to the extracellular domain of Tie2 • A–B Pull-down assay. Input ligands—rhAng1 (A) and VT (B)—were incubated with either protein A sepharose beads only, bead-conjugated mouse Tie2-Fc (mTie2), or bead-conjugated human Tie2-Fc (hTie2). […] The ‘unbound’ fraction is 7% of residual/free ligands remaining in the supernatant. • C Quantitative kinetics analysis by SPR. All analytes were run at increasing concentrations of 0.625, 1.25, 2.5, 5, and 10 nM, at 37°C and pH 7.4. […] Source data are available online for this figure. […]
as §1, §2, §3, §4
(structural/molecular weight control for VT), and 40 μL of supernatant (7% of residual/unbound ligand) – were similarly boiled in SDS sample buffer. Ang1 samples and controls were resolved by 7.5% polyacrylamide gel electrophoresis (PAGE), electroblotted onto PVDF membranes, and probed with an anti-Ang1 antibody (R&D Sytems, AF923; diluted 1:2,000 in TBS supplemented with 7% BSA and 0.1% Tween-20) at 75kDa (reduced monomers). VT samples and controls were resolved by 17% PAGE, blotted onto PVDF membranes, and probed with an anti-PEG antibody (Silver Lake Research, CH2074; diluted 1:4,000 in TBS supplemented with 7% BSA and 0.05% CHAPS*) at higher “apparent” molecular weights than the expected 14 and 10kDa due to their polymeric nature and large hydrodynamic radii (Zheng et al, 2007). *Note: non-ionic, PEO-based, polymer detergents were avoided at these steps as they cross-react with the anti-PEG antibody used for detecting VT.
Surface Plasmon Resonance (SPR) Experiments: The binding of analytes – VT, T7c peptide, PEG-Cys, rhAng1, COMP-Ang1, BowAng1, and rhVEGF – to the extracellular domain of Tie2 were […]
investigated by SPR using a Biacore T200 Instrument (GE Healthcare). For qualitative binding analysis, mTie2-Fc was dissolved in 10mM acetate buffer (pH 4.5) and immobilized at high density onto a CM5 sensor chip using amine coupling chemistry as described by the manufacturer to a response of 11,500RU.
Binding analysis were performed by exposure of immobilized mTie2-Fc to the analytes diluted in HBS-EP (0.01M HEPES pH 7.4, 0.15M NaCl, 3mM EDTA, 0.005% v/v Tween-20), which was supplemented with 1mg/mL carboxymethyl dextran (NSB reducer, GE Healthcare) to reduce non-specific binding to the sensor chip. Analytes were injected at 30μL/min (association time 120s, dissociation time 120s) at 37 °C, and the chip surface was regenerated each cycle by a 60s pulse of 4M MgCl2. To quantitatively determine the kinetic properties of the interaction (KD, kd, ka) and avoid mass transport limitations, mTie2-Fc and hTie2-Fc were immobilized at low density (1,000-1,200RU) onto separate flow cells of the CM5 chip using amine coupling chemistry. Kinetic analyses were performed using a single-cycle kinetic […]

[2] = target: T1, mouse Tie2-Fc (Fc-conjugated …); test: SPR
[3] = target: T2, human Tie2-Fc (Fc-conjugated …); test: SPR
[4] = target: T1, mouse Tie2-Fc (Fc-conjugated …); test: SPR
[5] = target: T2, human Tie2-Fc (Fc-conjugated …); test: SPR

| Molecule | inhibition of Ang1 or Ang2 binding to Tie2 [1] | koff [2] [s⁻¹] | koff [3] [s⁻¹] | Kd [4] [nM] | Kd [5] [nM] | also measured |
| --- | --- | --- | --- | --- | --- | --- |
| HHHRHSF [T7, HHHRHSF, heptapeptide identified by phage display, synthetic free form] | did not inhibit Ang1 or Ang2 binding to Tie2 |  |  |  |  |  |
| NLLMAAS [T4] | able to competitively inhibit Ang1 or Ang2 binding to Tie2 |  |  |  |  | Ki ([1]; ELISA and SPR, read-out: Ki, competitive inhibition of Ang1 or Ang2 binding to Tie2): ~300000 nM |
| VEGF |  |  |  |  |  | binding to Tie2-Fc (mouse Tie2-Fc (mTie2-Fc)): no binding to Tie2-Fc was detectable; binding to Tie2-Fc (human Tie2-Fc (hTie2-Fc)): no binding to Tie2-Fc was detectable; binding to Tie2-Fc (human Tie2-Fc (hTie2-Fc); listed as rhVEGF): no detectable binding |
| BowAng1 (Ang-F1-Fc-F1) (ligand) RDCADVYQAGFNKSGIYTIYINNMPEPKKVFCNMDVNGGGWTVIQHREDGSLDFQRGWKEYKMGFGNPSGEYWLGNEFIFAITSQRQYMLRIELMDWEGNRAYSQYDRFHIGNEKQNYRLYLKGHTGTAGKQSSLILHGADFSTKDADNDNCMCKCALMLTGGWWFDACGPSNLNGMFYTAGQNHGKLNGIKWHYFKGPSYSLRSTTMMIRPLDFRDCADVYQAGFNKSGIYTIYINNMPEPKKVFCNMDVNGGGWTVIQHREDGSLDFQRGWKEYKMGFGNPSGEYWLGNEFIFAITSQRQYMLRIELMDWEGNRAYSQYDRFHIGNEKQNYRLYLKGHTGTAGKQSSLILHGADFSTKDADNDNCMCKCALMLTGGWWFDACGPSNLNGMFYTAGQNHGKLNGIKWHYFKGPSYSLRSTTMMIRPLDF |  | 0.00231 | 0.00232 | 0.465 | 0.611 |  |
| COMP-Ang1 (ligand) DLAPQMLRELQETNAALQDVRELLRHRVKEITFLKNTVMECDACGDTVHNLVNLCTKEGVLLKGGKREEEKPFRDCADVYQAGFNKSGIYTIYINNMPEPKKVFCNMDVNGGGWTVIQHREDGSLDFQRGWKEYKMGFGNPSGEYWLGNEFIFAITSQRQYMLRIELMDWEGNRAYSQYDRFHIGNEKQNYRLYLKGHTGTAGKQSSLILHGADFSTKDADNDNCMCKCALMLTGGWWFDACGPSNLNGMFYTAGQNHGKLNGIKWHYFKGPSYSLRSTTMMIRPLDF |  | 0.00208 | 0.00361 | 1.32 | 1.36 |  |

Reference: article PMC4459817, “Vasculotide reduces endothelial permeability and tumor cell extravasation in the absence of binding to or agonistic activation of Tie2” (EMBO Molecular Medicine, 2015)
